For one substance, stoichiometry N results are on record in paper PMC10251477, “Doubly Constrained C-terminal of Roc (COR) Domain-Derived Peptides Inhibit Leucine-Rich Repeat Kinase 2 (LRRK2) Dimerization” (ACS Chemical Neuroscience, 2023).

The assay addresses Purified full-length LRRK2 (UniProt Q5S007). As to the kind of experiment: mass photometry; LRRK2 at 150 nM or 200 nM incubated with constrained peptide 1:7.5 for 30 min at 30 °C; 10 uL added to 10 uL buffer (50 mM HEPES, 150 mM NaCl, 5 mM MgCl2, 1 mM DTT, 0.1 mM GDP, 1% glycerol); Refeyn TwoMP; percentage of dimer from molecular weight. The following applies: remark: other sources report otherwise.

In the case of “Purified full-length LRRK2, Q5S007 1-2527”, the stoichiometry N (as a rule, the number of molecules, sites or subunits per partner or assembly) came to 2.
